Like-named read-outs stand apart in the source and are kept apart here.
Experiments:
[1] = biological target: mouse WT-RELN (Reelin), full-length (mouse) (UniProt Q60841); test: non-reducing SDS-PAGE with immunoblot
[2] = biological target: mouse WT-RELN (Reelin), full-length (mouse) (UniProt Q60841); test: non-reducing SDS-PAGE with immunoblot; remark: listed apart in the source

stoichiometry N [1]: 2 | stoichiometry N [2]: 2
Substance: mouse WT-RELN (Reelin), full-length, Q60841 27-3461

— paper doi:10.1101/2021.05.25.445586
